Assay results from US20030180744.

Key:
[1] = target: T1, KGF (hKGF) (Homo sapiens) (UniProt P21781); assay: filter
T1 sequence: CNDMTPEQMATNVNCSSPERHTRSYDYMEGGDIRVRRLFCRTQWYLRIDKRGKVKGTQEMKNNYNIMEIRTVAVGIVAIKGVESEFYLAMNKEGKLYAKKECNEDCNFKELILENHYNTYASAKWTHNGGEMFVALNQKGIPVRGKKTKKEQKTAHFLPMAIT

[2] = target: T1, KGF (hKGF) (Homo sapiens); assay: competition; conditions: 2'-F pyrimidines, PC-3 cells
[3] = target: T1, KGF (hKGF) (Homo sapiens); assay: FP; conditions: 2'-F pyrimidines; method is nitrocellulose filter binding; DPBS, 37 C
PDGF-AB (Homo sapiens) = PDGF-AB (Homo sapiens) (UniProt P04085+P01127); assay: filter; conditions: 2'-F pyrimidines; +/-7; random pool
Sequence of PDGF-AB (Homo sapiens) (P01127 82-190, chain 2 of 2, other chains not shown): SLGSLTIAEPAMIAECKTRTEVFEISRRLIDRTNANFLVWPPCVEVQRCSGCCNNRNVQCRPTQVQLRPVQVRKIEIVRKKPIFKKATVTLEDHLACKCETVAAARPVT

## GGGAGGACGAUGCGGNGACUGAUUUUUCCUUGNCAGUGUAAUUUCCUGGCUGCCCCAGACGACUCGCCCGA [38F]
[1]; 2'-F pyrimidines, DPBS, 37 C, PC-3 Ki 0.22 nM
  Kd: 0.33 nM
[2]
  IC50: 0.6 nM
[2]; 20 nM on NIH3T3/FGFR-2
  Ki: 0.22 nM

## GGGAGGACGAUGCGGNNNNNNNNNNNNNNNNNNNNNNNNNNNNNNNNNNNNNNNNCAGACGACUCGCCCGA [random 2'-F RNA 40N7]
[1]; 2'-F pyrimidines, random pool
  Kd: 30 nM

## GGGAGGACGAUGCGGUCGAGUGUUCUCCUUCGGUAACUAUUNNNNAUUUCGUGCCCAGACGACUCGCCCGA [44F]
[1]; 2'-F pyrimidines, DPBS, 37 C
  Kd: 1.32 nM

## GGGAGGACGAUGCGGAACGGAGAUGUCCCCUCAAMAUUUACCGUCUCCGUUUGCGCCCCAGACGACUCGCCCGA [31F]
[1]; 2'-F pyrimidines, DPBS, 37 C
  Kd: 1 nM

## GGGAGGACGAUGCGGGGACAAWYAGCGGUGUCUUUUCAUUUNKAUCCUCCGACRUCCCAGACGACUCGCCCGA [56F]
[1]; 2'-F pyrimidines, biphasic, high affinity 32%, Kd2 3.00 nM, PC-3 Ki 0.16 nM
  Kd: 0.07 nM
[2]
  IC50: 1 nM
[2]; 27.4 nM on NIH3T3/FGFR-2
  Ki: 0.16 nM

## GGGAGGACGAUGCGGNNNNNNNNNNNNNNNNNNNNNNNNNNNNNNNNNNNNNNNNCAGACGACUCGCCCGA [random 2'-NH2 RNA 40N7]
[1]; 2'-NH2 pyrimidines, random pool
  Kd: 30 nM

## GGGAGGACGAUGCGGGAAUUCCCAGCGCUUGACUGAUACAAACNUUCCCGUGCCCCAGACGACUCGCCCGA [16F]
[1]; 2'-F pyrimidines, biphasic, high affinity 49%, Kd2 3.39 nM
  Kd: 0.83 nM

## GGGAGGACGAUGCGGGAAUUAACAGGGCCAGAAUUCUCAUCUNNCUUCCCGUGACCCAGACGACUCGCCCGA [12F]
[3]
  Kd: 1.38 nM

## GGGAGACAAGAAUAACGCUCAANNNNNNNNNNNNNNNNNNNNNNNNNNNNNNNNNNNNNNNNNNNNNNNNNNUUCGACAGGAGGCUCACAACAGGC [random 2'-F RNA 50N]
PDGF-AB (Homo sapiens)
  Kd: 35 nM

## GGGAGGACGAUGCGGCAGUCUCCCUAGGUUUCAUCUCUGCAGCAUUCCGGGGUNCCAGACGACUCGCCCGA [51F]
[1]; 2'-F pyrimidines, DPBS, 37 C
  Kd: 1.27 nM

## GGGAGGACGAUGCGGCAANNNNNNNCUCUCUCCUGGCGUUCCGCAACCCGCCCCCAGACGACUCGCCCGA [19F]
[1]; 2'-F pyrimidines, second column 0.94-2.57, DPBS, 37 C
  Kd: 1.6 nM
